Measurements from US20210230304A1.

Biological target: Chicken egg white-derived lysozyme (Sigma-Aldrich) (chicken) (UniProt P00698)
Experiment: SPR, Biacore T200; antigen immobilised, antibody as analyte

Chicken egg white-derived lysozyme (Sigma-Aldrich) (chicken), sequence (P00698 19-147): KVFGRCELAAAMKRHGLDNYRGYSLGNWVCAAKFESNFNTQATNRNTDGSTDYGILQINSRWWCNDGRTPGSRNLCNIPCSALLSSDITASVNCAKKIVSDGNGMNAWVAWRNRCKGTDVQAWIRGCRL

Kd: 0.177 nM
Substance: mouse anti-lysozyme antibody of clone Hy-HEL5, wild-type
